Where a chain is given by its changes, count along the chain named.
B1: 40769p1.1.A4 (scFv, V domains shown)
VH: EVQLLESGGGLVQPGGSLRLSCTASGITFSRFNMFWVRQAPGKGLEFVASIRDDGSWTYYADSVKGRFTISRDNSKNTLYLQMNSLRAEDTAVYYCAKDYNSKDFIYHYVMDVWGQGTTVTVSS
VL: QSVLTQPPSASGTPGQRVTISCSGRNSNIGNNVVNWYQQLPGTAPKLLIYKDDQRPSGVPDRFSGSKSGTSASLAISGLQSEDEADYYCSTWDDSLNGWVFGGGTKLTVL
notes: tested as scFv-Fc supernatant
B2: 40596p1.B1 (scFv, V domains shown)
VH: EVQLLESGGGLVEPGGSLRLSCAASGFDFSTYAMTWVRQAPGKGLEWVAGNGWSGSFIYYADSVKGRFTISRDNSKNTLYLQMNSLRAEDTAVYYCTRNPGFGEMDVWGQGTTVTVSS
VL: EIVLTQSPGTLRLSPGERATLSCKASQTVGTTLAWYQQKPGQAPRLLIYGASTRATGIPDRFSGSGSGTEFTLTISSLQSEDFADYYCQQYKSWPPLTFGGGTKVEIK
notes: tested as scFv-Fc supernatant
B3: 40566p1.D2 (scFv, V domains shown)
VH: DVQLVESGGGVVRPGESLRLSCAASGFTFDNYDMTWVRQAPGEGLEWVSFISSRGTFTYYTDSVKGRFTISRDNSKNTLYLQMNSLRAEDTAIYYCTKDSGEYYFFDYWGLGTLVTVSS
VL: EIVMTQSPATLSVSPGERATFSCRASQSVNSKLAWYQQKPGQAPRLLIYGASRRATGIPDRFSGSGSGTEFTLTISSLQSEDFAVYYCQQYYDWPPLTFGGGTKVEIK
notes: tested as scFv-Fc supernatant
B4: 40617p1.2.A3 (scFv, V domains shown)
VH: EVQLLESGGGLVQPGGSLRLSCAASGFTFSNYWMTWVRQAPGKGLEWVSAISSYGGNYIYYADSVKGRFTISRDNSKDTLYLQMNSLRAEDTAVYYCAKDWDDGMDVWGQGTTVTVSS
VL: B3 VL with T10V, F21L, R53T, T56A, E70D, L78P, Q90H, W94L, L97Y, T98S
notes: tested as scFv-Fc supernatant
B5: 40566p1.F8 (scFv, V domains shown)
VH: B3 VH with T58A
VL: B3 VL
notes: tested as scFv-Fc supernatant
B6: 40566p1.B11 (scFv, V domains shown)
VH: B3 VH with V11L, T97A
VL: B3 VL with G64E, Y92H
notes: tested as scFv-Fc supernatant
B7: 40566p1.C9 (scFv, V domains shown)
VH: B3 VH
VL: B3 VL with I2T, G50D, Y87F
notes: tested as scFv-Fc supernatant
B8: 40617p1.2.H1 (scFv, V domains shown)
VH: B4 VH with S30T, I59M, K77E, D78N
VL: EIVMTQSPAVLSVSPGERATLSCRASQTVGSKLAWYQQKPGQAPRLLIYGVSTRAAGIPDRFSGSGSGTDFTLTISSLQSEDFAVYYCQQYYDLPPYSFGGGTKVEIK
notes: tested as scFv-Fc supernatant
B9: 40617p1.2.A1 (scFv, V domains shown)
VH: B4 VH with N31S, N57Q, I59T, Q83H, N85D
VL: B8 VL with T28S, G30N, S31I, V51A, E81D
notes: tested as scFv-Fc supernatant
B10: 40566p1.B3 (scFv, V domains shown)
VH: B3 VH with K65R, Q82E, T97A
VL: B3 VL
notes: tested as scFv-Fc supernatant
B11: 40617p1.2.H8 (scFv, V domains shown)
VH: B4 VH with N31S, I59M
VL: EIVMTQSPATLSVSPGDRATLSCRASQSVNSKLAWYQQKPGQAPRLLIYAASSRATGIPDRFSGSGSGTDFTLTISRLEPEDFAVYYCQQYYDLPPYSFGGGTKVEIK
notes: tested as scFv-Fc supernatant
B12: 40769p1.2.B10 (scFv, V domains shown)
VH: EVQLLESGGGLVQPGGSLRLSCPASGFDFSSYWMTWVRQAPGKGLEWVSTITDSGGRAWYADSVRGRFTISRDNSKNTLYLQMNSLRAEDTAVYYCARDTPKTYYYYAMDVWGQGTTVTV
VL: QSALTQPPSASGTPGQRVTISCSGSSSNIQYSYVSWYQQLPGTAPKLLIYNNVQRPSGVPDRFSGSKSGTSASLAISGLQSEDEADYYCATWDESLLGLWVFGGGTKLTVL
notes: tested as scFv-Fc supernatant
B13: 40596p1.F6 (scFv, V domains shown)
VH: EVQLLESGGGLVQPGGSLRLSCAASGFDFSKNAMSWVRQAPGKGLEYVAGSGWSGSFIFYADSVKGRFTVSRDNSENTLYLQMSSLRAEDTAVYYCAKNPGFGEMDVWGQGTTVTVSS
VL: EIVLTQSPGSLFLSPGERATLTCRASQTIGSNLAWYQQKFGQAPRLLIYGASTRAADIPDRFSGSGSGTEFTLTISSLQSEDFAVYYCQQYNSWPPLTFGGGTKVEIK
notes: tested as scFv-Fc supernatant
B14: 40596p1.A5 (scFv, V domains shown)
VH: B13 VH with K31N, S84N
VL: B13 VL with F12S, T22R, T28S, F40P, R45S, S76T
notes: tested as scFv-Fc supernatant
B15: 40596p1.G10 (scFv, V domains shown)
VH: B13 VH with S25P
VL: B13 VL
notes: tested as scFv-Fc supernatant
B16: 40596p1.D2 (scFv, V domains shown)
VH: B13 VH with F68S
VL: B13 VL with I2L
notes: tested as scFv-Fc supernatant

Molecular target: T1, human CD38 on transiently transfected Expi293 cells (Origene #SC321273) (human, UniProt P28907 1-300)
T1 construct: whole, on cells; also called Human (FACs)
Test: flow cytometry, transfected Expi293 cells;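 also: antibody binding to Expi293 cells transiently expressing human or murine CD38, antibodies applied at 10 ug/ml for 60 min on ice, read by flow cytometry as percent gated cells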

Binder	FACs 10 ug/ml (percent gated) [%]
B1	69.9
B2	66.1
B3	20.1
B4	70.3
B5	19.5
B6	6.05
B7	31.3
B8	69.5
B9	78.8
B10	21.1
B11	67.8
B12	86.3
B13	72.8
B14	72.8
B15	68
B16	71.5

Molecular target: T2, murine CD38 on transiently transfected Expi293 cells (Origene MC208001) (murine, UniProt P56528 1-304)
T2 construct: whole, on cells; also called Murine (FACs)
T2 sequence (looked up): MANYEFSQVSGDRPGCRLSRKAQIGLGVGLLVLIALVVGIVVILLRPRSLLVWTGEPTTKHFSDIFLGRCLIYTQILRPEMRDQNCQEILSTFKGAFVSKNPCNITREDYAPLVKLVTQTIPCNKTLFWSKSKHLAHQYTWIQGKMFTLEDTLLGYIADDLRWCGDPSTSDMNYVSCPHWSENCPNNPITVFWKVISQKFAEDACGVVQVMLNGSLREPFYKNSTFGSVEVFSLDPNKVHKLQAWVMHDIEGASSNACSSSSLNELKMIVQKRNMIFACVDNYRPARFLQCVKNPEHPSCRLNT
Test: flow cytometry, transfected Expi293 cells;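 also: antibody binding to Expi293 cells transiently expressing human or murine CD38, antibodies applied at 10 ug/ml for 60 min on ice, read by flow cytometry as percent gated cells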

Binder	FACs 10 ug/ml (percent gated) [%]
B1	3.09
B2	45.4
B3	71.2
B4	69.4
B5	72.1
B6	49.9
B7	76.9
B8	68.5
B9	67.9
B10	74.1
B11	68.4
B12	4.81
B13	68.6
B14	68.7
B15	59
B16	61

Molecular target: T3, His-tagged mouse CD38 (ACRO Biosystems #CD8-M5223) (mouse, UniProt P56528 45-304)
T3 construct: bought recombinant protein with His tag; also called Murine
T3 sequence (looked up): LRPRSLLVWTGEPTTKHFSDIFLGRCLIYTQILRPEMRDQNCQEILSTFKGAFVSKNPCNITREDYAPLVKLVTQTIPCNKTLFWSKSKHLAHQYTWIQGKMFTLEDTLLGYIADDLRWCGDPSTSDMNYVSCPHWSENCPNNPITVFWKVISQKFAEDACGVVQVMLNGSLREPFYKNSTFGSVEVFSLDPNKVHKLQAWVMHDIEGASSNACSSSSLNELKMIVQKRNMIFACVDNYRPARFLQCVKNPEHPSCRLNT
Test: SPR, captured scFv-Fc, His-CD38 analyte;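 also: SPR on a Carterra LSA, scFv-Fc captured by anti-human Fc on HC30M chip, His-tagged CD38 (human, mouse, cynomolgus) flowed as analyte in eight 1:2 steps from 400 nM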

Binder	Kd [nM]
B1	675000
B2	9070
B3	1.74
B4	75.5
B5	7.59
B6	224
B7	0.351
B8	39.4
B9	108
B10	1.32
B11	154
B12	56300
B13	10.8
B14	6.82
B15	20.8
B16	19

Molecular target: T4, His-tagged human CD38 (ACRO Biosystems cat #CD8-H5224) (human, UniProt P28907 43-300)
T4 construct: bought recombinant protein with His tag
Test: SPR, captured scFv-Fc, His-CD38 analyte;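 also: SPR on a Carterra LSA, scFv-Fc captured by anti-human Fc on HC30M chip, His-tagged CD38 (human, mouse, cynomolgus) flowed as analyte in eight 1:2 steps from 400 nM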

Binder	Kd [nM]
B1	54400
B2	46600
B3	11.8
B4	28.1
B5	10900
B6	104
B7	0.269
B8	12.5
B9	82.9
B10	43800
B11	60.7
B12	1.43
B13	84.7
B14	75.8
B15	67.8
B16	63.7

Molecular target: T5, His-tagged cynomolgus monkey CD38 (ACRO Biosystems cat #CD8-05223) (cynomolgus monkey, UniProt Q5VAN0 43-301)
T5 construct: bought recombinant protein with His tag
Test: SPR, captured scFv-Fc, His-CD38 analyte;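 also: SPR on a Carterra LSA, scFv-Fc captured by anti-human Fc on HC30M chip, His-tagged CD38 (human, mouse, cynomolgus) flowed as analyte in eight 1:2 steps from 400 nM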

Binder	Kd [nM]
B1	0.106
B2	110
B3	29.8
B4	92.8
B5	4.82
B6	549
B7	4.67
B8	30.6
B9	77.9
B10	5.68
B11	39.3
B12	18
B13	98.4
B14	13.6
B15	56.3
B16	154

Molecular target: T3, His-tagged mouse CD38 (ACRO Biosystems …)
Test: ELISA, coated His-CD38

Binder	ELISA 1 ug/ml
B1	0.049
B2	1.76
B3	1.74
B4	0.745
B5	1.88
B6	1.24
B7	1.97
B8	1.05
B9	1.13
B10	1.93
B11	1.5
B12	1.14
B13	1.9
B14	1.81
B15	1.74
B16	1.77

Molecular target: T4, His-tagged human CD38 (ACRO Biosystems …)
Test: ELISA, coated His-CD38

Binder	ELISA 1 ug/ml
B1	1.67
B2	1.79
B3	1.96
B4	1.75
B5	1.75
B6	1.43
B7	1.83
B8	1.81
B9	1.57
B10	1.89
B11	1.77
B12	1.7
B13	1.91
B14	1.88
B15	1.84
B16	1.98

Molecular target: T5, His-tagged cynomolgus monkey CD38 (ACRO …)
Test: ELISA, coated His-CD38

Binder	ELISA 1 ug/ml
B1	1.78
B2	1.99
B3	1.83
B4	1.7
B5	1.8
B6	1.44
B7	1.66
B8	1.83
B9	1.67
B10	1.81
B11	2.17
B12	1.68
B13	1.87
B14	1.97
B15	1.89
B16	1.85

— patent publication US20220306762A1 (CRYSTAL BIOSCIENCE, published 2022)
